Biological target: NRP1-PerCP-Cy5.5 (carrier free recombinant neuropilin-1 coupled to PerCP-Cy5.5) (UniProt O14786)
Assay: FRET or BRET; Scheme 3: VEGF (22.4 nM or 11.2 nM, diluted in PBS) incubated simultaneously in solution with the donor (RLuc8-Ra02 or RLuc8-4xGly-Ra02, cleared HEK293 lysate) and the acceptor NRP1-PerCP-Cy5.5, both in excess; n-CLZ in BRET assay buffer; BRET ratio magenta filter/blue filter, against a no-VEGF control

Sequence of UniProt O14786 (O14786 22-856): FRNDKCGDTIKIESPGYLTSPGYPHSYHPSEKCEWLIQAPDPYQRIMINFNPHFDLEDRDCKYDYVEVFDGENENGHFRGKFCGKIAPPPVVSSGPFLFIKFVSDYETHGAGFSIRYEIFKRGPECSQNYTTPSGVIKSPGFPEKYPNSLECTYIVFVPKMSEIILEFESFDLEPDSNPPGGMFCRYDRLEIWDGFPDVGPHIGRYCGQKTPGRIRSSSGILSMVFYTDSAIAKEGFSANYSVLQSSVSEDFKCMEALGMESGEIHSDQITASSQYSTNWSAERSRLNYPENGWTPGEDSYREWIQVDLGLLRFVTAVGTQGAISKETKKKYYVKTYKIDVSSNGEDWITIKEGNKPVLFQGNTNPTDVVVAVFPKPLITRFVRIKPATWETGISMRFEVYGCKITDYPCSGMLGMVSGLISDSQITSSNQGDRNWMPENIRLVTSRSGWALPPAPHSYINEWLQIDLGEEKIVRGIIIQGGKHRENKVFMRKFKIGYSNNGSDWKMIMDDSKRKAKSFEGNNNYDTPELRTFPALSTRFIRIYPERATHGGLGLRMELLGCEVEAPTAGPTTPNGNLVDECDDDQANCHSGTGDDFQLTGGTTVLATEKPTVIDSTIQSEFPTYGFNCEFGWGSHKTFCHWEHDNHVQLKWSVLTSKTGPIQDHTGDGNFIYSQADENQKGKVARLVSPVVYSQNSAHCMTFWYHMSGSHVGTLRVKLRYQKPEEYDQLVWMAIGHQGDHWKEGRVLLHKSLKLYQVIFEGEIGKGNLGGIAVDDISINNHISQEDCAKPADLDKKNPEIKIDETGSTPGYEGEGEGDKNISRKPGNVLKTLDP

vascular endothelial growth factor (rhVEGF165) (ligand)
BRET ratio (donor RLuc8-4xGly-Ra02, 11.2 nM VEGF): 114 mBU | BRET ratio (donor RLuc8-4xGly-Ra02, 22.4 nM VEGF): 119 mBU | BRET ratio (donor RLuc8-Ra02, 11.2 nM VEGF): 110 mBU | BRET ratio (donor RLuc8-Ra02, 22.4 nM VEGF): 115 mBU
